According to the supplement of paper PMC12042874:
± gives the uncertainty stated by the source.

Test: amyloid nucleation score (Sup35N fusion, yeast selection) (log enrichment); library NNK3; higher = more nucleation; inactive = no reads after selection
Summary of the method: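 Random libraries were run with three technical output replicates. In each, psi-negative yeast expressing Sup35N fused to peptides of 20 random codons were induced 24 hours with 100 μM copper sulfate and grown 7 days at 30°C on medium lacking adenine and uracil, and input and output plasmid inserts were Illumina-sequenced. The nucleation score is the DiMSum log enrichment of output over input reads, centred on the mode score of non-aggregating sequences, and sequences under 100 input reads were excluded.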

| Substance | amyloid nucleation score |
| --- | --- |
| VMCFYRLLNVIQWTTANVFG | inactive |
| RATKVDVRGGVA | -0.911 ± 1.5 |
| LLIKDYMHDHLGIILYTEEC | inactive |
| RCDNKF | 1.2 ± 0.17 |
| LFVIINPQVTWLLFRMFESH | inactive |
| VLNFIMAWYNFRFVWGSMGV | inactive |
| QVLASTNATESCRIDRDTVV | inactive |
| RLQMRSATLYCEGGSGAILY | inactive |
| YAFLTYFSKVIDSVF | 1.33 ± 0.076 |
| HVSLNLDSQNCCMSECFA | inactive |
| TGSMFRSRPRSEG | inactive |
| VALAVMQKLNMRYIYNPCFV | inactive |
| AAISVFCEVFK | inactive |
| IRYLYLFVYSSRLSHIPGKN | inactive |
| VDDIPYRFKTIKTTG | inactive |
| LGVMSAVRAIGGFEILIGCV | inactive |
| KSCHQSRFISDYRPAAPEDS | inactive |
| LLWYKLSELR | inactive |
| SIRVINKRHCCSSGDWREDR | 1.78 ± 0.081 |
| MGGICRASRCCGCPTGRNCL | 0.665 ± 0.27 |
| FSVIMFMNLRAQFASMDRGG | 1.59 ± 0.12 |
| VVLCVLEYYKFF | 0.848 ± 0.25 |
| PDLDYFMIHA | inactive |
| RVDWRNGRVRRHLRHVLRIN | inactive |

| Substance | amyloid nucleation score |
| --- | --- |
| DWNYNTLQLSSPVGAGLTKN | inactive |
| CLSTPMVMLICFM | 0.904 ± 0.29 |
| RLVVLMCCIGYFGPADMNFA | 2.66 ± 0.08 |
| IYCPNIILLVKRHGVFQMFL | 2.3 ± 0.072 |
| WFAWIH | inactive |
| LWRWKYRAILKRYEKERVGR | inactive |
| RGGGQDDYTRFLGSLNDVPV | inactive |
| SMEIGLGVEIYDVMRFGERM | inactive |
| SCNNDPFTNDNASLVRLGRE | inactive |
| YRMICPAIV | inactive |
| DVMRVWFTEYSMSTTVGMAV | inactive |
| HKWAI | inactive |
| MGMFTNPT | inactive |
| VLGCFVVKGSKFVDLPEFHR | 1.3 ± 0.085 |
| YGSRW | inactive |
| LCRSSMGPFGNLWEKQLYIW | inactive |
| GNCGRSGINCHMTGTSVVRC | inactive |
| SMSAMYDSAIVV | inactive |
| YVIYFSN | -0.389 ± 0.93 |
| QMRCLY | inactive |
| AEWLSCLRWIGK | inactive |
| LENRSFNMMMFV | inactive |
| SVGRQSLYDL | 0.285 ± 0.24 |
| SELQYISLIYCDNRVCLHAL | inactive |

| Substance | amyloid nucleation score |
| --- | --- |
| DEFVKYQP | inactive |
| SVHPGTRG | inactive |
| PWRRDKSGVVLSWDAISFAW | inactive |
| RANRQQGVGTKQREGHNTVG | inactive |
| QYVVSGMTYFWRYMRLVNVR | inactive |
| HSSSYCSSYKERSIPWSW | 0.93 ± 0.12 |
| ACCQTDRFRFEVALVGFVVG | inactive |
| RNTMSFNDSFTNALLLKSVG | inactive |
| EVLYYRFLF | inactive |
| LSSGNGSFVRYI | inactive |
| NIRYFYAFRLA | inactive |
| FILGWCGIYSTACPNTSTGT | inactive |
| FKDFIIICLAKLFGIFYDTD | inactive |
| SETHLLQGDISVVMVLSAN | inactive |
| RIRGMFGCPNNR | inactive |
| ITLLCTLYYGQPTLGVDLVL | inactive |
| GMRFRCKRYVCVLQ | -0.078 ± 0.98 |
| QCSMDRNT | inactive |
| LVLYYCVTG | inactive |
| KNVSEEVGLSLVPSEGKSHL | inactive |
| FGWLTPDMKFLCTYKQRISG | inactive |
| LSSMWWLVRFYNFAF | inactive |
| RVCLL | -0.539 ± 1.4 |
| LCCKIHSRTKMRRGSC | inactive |

| Substance | amyloid nucleation score |
| --- | --- |
| VKVMMT | inactive |
| IGMKFCAYVLLSYKAITMFG | inactive |
| NSYEEWSKWHFSNWSGFSGC | inactive |
| SAKFTLLGISL | inactive |
| VFVSS | -0.36 ± 1 |
| SGMLKRFSALRGISASVVGV | inactive |
| AFCRNRTNVCMICYLRSG | 0.907 ± 0.17 |
| LFIWTDILTFLRS | inactive |
| MGVIMEGMRFFFVWMQM | inactive |
| NNCVGCPCFSYRS | 3.04 ± 0.072 |
| PYRYLGARIRCMAKDSVSHI | inactive |
| VMTVVRKSSSSVVAISWISE | 0.392 ± 0.54 |
| GLDGTGHKYDGQFARRWNLR | inactive |
| QKVYNFMWYLFQYIELVYMN | inactive |
| HNSRN | 0.186 ± 0.21 |
| FGIWCTIPWLLFRYSVDMFM | inactive |
| VFSFDMLHRLG | 1.53 ± 0.099 |
| SNGVRSRLLE | inactive |
| MLGVMCLYQVVFIDHSYSYR | inactive |
| KPGIIIVFVGHG | inactive |
| ADVLFKFNSDMRRS | inactive |
| RGMYMRYLGFLDHLNLRVFC | inactive |
| EILISNCEVDRRLYRGGN | -0.618 ± 0.98 |
| SFRFVSLVLFAVNDNYGRCW | 1.61 ± 0.13 |

| Substance | amyloid nucleation score |
| --- | --- |
| RSFLIRFILDLVYIRRTRNV | -0.273 ± 1.1 |
| WGVSLLVFHVTKQVRNRFYY | inactive |
| VSWVYRSGRFYDGVGVGYRT | inactive |
| GQPAH | inactive |
| TVVDLVIFG | inactive |
| SNCFRILYTCAVAQLPPCMR | inactive |
| KVSNTRLVRTINMSCGISYP | inactive |
| SECRTRLWLRESYNFSPDVK | inactive |
| CNILIISTTLTPKITLTFYC | 1.64 ± 0.13 |
| RCCFWVMLFNYARGKRTWCH | inactive |
| SLCFRSIINIGFFK | 2.15 ± 0.056 |
| SGIAGECFAM | inactive |
| HFIKGGLHCVS | inactive |
| PNRQTLFSSIRF | 0.092 ± 0.56 |
| AHRQMGNFR | -0.701 ± 1.2 |
| QFSNNSLKVRFMCVLYVVDR | -0.039 ± 0.37 |
| WAWNQSGFTPLYLCLEAWWS | inactive |
| PPFYMCFYLFVGLRNSMGWL | inactive |
| NWKKCYVHYISSADYALRRF | inactive |
| DKCRVCISFC | 1.14 ± 0.13 |
| AVENSQFW | 0.204 ± 0.38 |
| EMVITWCLRMLSQAMLGGYS | inactive |
| SNYCCRVSFVIKLLRMVYNF | 2.42 ± 0.08 |
| FSYVPQAILYLCLYYNVVHT | inactive |

| Substance | amyloid nucleation score |
| --- | --- |
| VLFFSAYWMFQKVGVLVPSK | inactive |
| HYMRMQTSLANRYIARNVAR | inactive |
| ILSYARTFVLIDNKVGMLR | inactive |
| KWVKPRVVTQKR | inactive |
| GYWWELSSKVNVCAMMHRPW | inactive |
| SILGFT | inactive |
| CRTQL | inactive |
| EATPSSIQAQ | inactive |
| DRVPSDTRCYKYGLLLLWYQ | inactive |
| YSGTKY | inactive |
| QCRQVIENNRVLFVAIKWEN | 0.57 ± 0.58 |
| LRSFQWVIVTMPLTRIRSDK | inactive |
| CLFCSALEL | 1.99 ± 0.072 |
| VRMVKYCLTLSSRTYCLIIM | inactive |
| PQTWVTWKIWYLGFGVAVGV | inactive |
| NTYRMMKGLSPVFMKMLCTP | inactive |
| QVVTSYGGSAVEDITAML | inactive |
| ISLKSLFVFHNLSVDIWVQR | inactive |
| VKTYFTSLRFVISMGWLNNQ | inactive |
| FSLSQLLVCFWADSRSMKWT | inactive |
| RDISGMLYCYEGFYVF | inactive |
| RSYFC | inactive |
| RIKCMEIFERPCYFLFCLHK | inactive |
| SWRASVYFITWDW | inactive |

| Substance | amyloid nucleation score |
| --- | --- |
| YAFISWNS | inactive |
| CKGLIFISSFANVVLN | 1.52 ± 0.12 |
| FGHIGQRRSFVIHLMHDGSP | inactive |
| YNCRVAVRWYS | inactive |
| YMLQVRCSVDLFVLDTMCFL | inactive |
| RFFHYYVSNVWTSNPFSTYI | -0.42 ± 0.62 |
| AILLNWNCVNFPCFEIYPYL | 1.7 ± 0.063 |
| SYRRIGHMRTKLGQVVR | inactive |
| DVFDYVSTVVTNYW | inactive |
| RMHMKLVGKG | inactive |
| INFTRSQYRFLIWYASQKMS | inactive |
| RPAGLWVTMWIYPVLRSTYV | inactive |
| AYWRREKMCSVPGGSWSGWV | inactive |
| WIRYTFYQNFRIL | -0.744 ± 0.8 |
| YCLFASMKDDAQGTQNCDRS | inactive |
| IVGAAVRGKMRFSMSRAWLG | inactive |
| CQCMSFIRTNSYKDFT | inactive |
| NFCLVRGVNLANPFSNDCKS | inactive |
